B1: 121G12 humanized CysMab: humanized anti-CCR7 antibody 121G12, CysMab, Fc wild type (antibody, V domains shown)
VH: EVQLVESGGGLVKPGGSLRLSCAASGFTFSTYAMSWVRQAPGKGLEWVATISDAGSYSYYPDNVKGRFTISRDNAKNSLYLQMNSLRAEDTAVYYCARRGSRYEEYYVMDYWGQGTTVTVSS
VL: EIVLTQSPATLSVSPGERVTLSCRASQSISNNLHWYQQKPGQAPRLLIKYASQSISGIPARFSGSGSGTDFTLTISSVEPEDFGVYFCQQSSSWLTFGQGTKLEIK
B2: 674J13.CysMab.DAPA.AURIX2 (conjugate)
heavy: DVQLQESGPGLVKPSQTLSLTCTVSGYSITSGYSWHWIRQHPGKGLEWMAHIHSSGSTNYNPSLKSRITISRDTSKNQFSLKLSSVTAADTAVYYCARGGVQAFAYWGQGTLVTVSSASTKGPSVFPLAPSSKSTSGGTAALGCLVKDYFPCPVTVSWNSGALTSGVHTFPAVLQSSGLYSLSSVVTVPSSSLGTQTYICNVNHKPSNTKVDKRVEPKSCDKTHTCPPCPAPELLGGPSVFLFPPKPKDTLMISRTPEVTCVVVAVSHEDPEVKFNWYVDGVEVHNAKTKPREEQYNSTYRVVSVLTVLHQDWLNGKEYKCKVSNKALAAPIEKTISKAKGQPREPQVYTLPPSREEMTKNQVSLTCLVKGFYPCDIAVEWESNGQPENNYKTTPPVLDSDGSFFLYSKLTVDKSRWQQGNVFSCSVMHEALHNHYTQKSLSLSPGK
light: EIVLTQSPATLSASPGERVTMSCSASSSVIYMHWYQQKPGQAPRRWIYDTSKLASGVPARFSGSGSGTDYTLTISSMEPEDAAVYYCQQWSSNPLTFGQGTKLEIKRTVAAPSVFIFPPSDEQLKSGTASVVCLLNNFYPREAKVQWKVDNALQSGNSQESVTEQDSKDSTYSLSSTLTLSKADYEKHKVYACEVTHQGLSSPVTKSFNRGEC

Experiments:
[1] = target: T1, human CCR7 (NIH3T3.hCCR7 cells) (Homo sapiens, UniProt P32248); test: FACS binding to cell surface expressed CCR7
T1 construct: Full length human, cyno and mouse CCR7 genes were synthesized; expressed in transfected cells; host or cells: NIH/3T3 (retroviral transduction)
T1 sequence (P32248 25-378): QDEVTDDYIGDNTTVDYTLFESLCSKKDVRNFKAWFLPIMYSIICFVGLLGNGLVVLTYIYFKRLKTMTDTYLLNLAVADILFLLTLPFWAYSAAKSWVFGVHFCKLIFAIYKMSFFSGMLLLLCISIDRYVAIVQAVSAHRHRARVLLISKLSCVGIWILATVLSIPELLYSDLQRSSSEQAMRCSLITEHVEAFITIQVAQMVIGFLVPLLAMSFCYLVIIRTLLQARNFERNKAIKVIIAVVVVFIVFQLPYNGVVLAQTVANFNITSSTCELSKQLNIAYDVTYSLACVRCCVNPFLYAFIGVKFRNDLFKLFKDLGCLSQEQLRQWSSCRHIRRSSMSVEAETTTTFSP
Description: (§1) The affinity of various antibodies and ADCs to CCR7 and its species orthologues was determined using FACS. Purified IgGs were titrated to determine EC50 values for binding to cell surface expressed CCR7.
(§2) For this purpose, CCR7 positive cells were harvested (adherent cells were detached with Accutase), washed twice with FACS buffer (PBS/3% FCS/0.02% sodium azide) and diluted to approximately 2×10^6 cells/ml in FACS buffer. All subsequent steps were done on ice to prevent internalization of the receptor. 100 μl cell suspension/well were transferred into 96-well U-bottom plates (Falcon). 2×10^5 cells/well were incubated with a serial dilution of antibody concentrations of the anti-CCR7 antibody-of-interest ranging across several logs, starting at a high of 100 nM for 60 minutes at 4° C., gently shaking. […] After a final wash, cells were resuspended in 100 μl of FACS buffer containing 0.2 μg/ml DAPI followed by readout on the flow cytometry machine (BD LSRFortessa Cell Analyzer; Cat #647177). Mean fluorescence intensity (MFI) of live, single cells was calculated in Flowjo 10.0.8 and exported into Graphpad Prism6 for EC50 determination.
Selectivity was assessed by measuring apparent binding affinities to isogenic cell pairs engineered to overexpress CCR7 as well as cell lines expressing CCR7 paralogs, e.g., CCR9, CCR6, CXCR4 and CCR8. […]

[2] = tested on: CCR7 and CD20 expressing JVM2 cells; test: surrogate ADCC reporter assay (Jurkat-V158 effector cells); format: cell-based; details: JVM2 target cells and Jurkat-V158 effector cells
Description: Capacity of candidate antibodies to mediate ADCC was assessed using a surrogate ADCC reporter assay. CCR7 and CD20 expressing JVM2 cells were used as target cells. JVM2 cells were washed and re-suspended at 8×10^4 cells/ml cells/ml. Effector cells in this assay were a Jurkat cell line stably expressing CD16V158 and an NFAT dependent luciferase reporter (Jurkat-V158); expression of luciferase is a surrogate for canonical ADCC signaling through CD16. Briefly, Jurkat-V158 cells grown in suspension were spun down to remove spent media, the pellet was resuspended in assay media and adjusted to 1.6×10^6 cells/ml cells/mL. Mix equal volumes of effector and target cells to make a master mix of cells yielding a target to effector cell ratio of 1:5 or 1:20. A titration of antibody was diluted in assay media with a final top concentration of 50 ug/mL in the assay well. 12.5 uL of Ab solution was added to a 384 well round bottom plate and then 12.5 ul of the master cell mix was added. Antibody and cells were mixed well by pipetting and incubated for 4 hours at 37° C. in 5% CO2. Following incubation, 15 uL of Bright Glo substrate (Promega #G7572) was added to each well and shaken for 5 min at RT at 1050 rpm. Luminescent signal was read on the Envision plate reader (Perkin Elmer). […]

[3] = tested on: NIH3T3 cells; test: FACS binding, selectivity
Description: as §1, §2
(§3) Selectivity was assessed by measuring apparent binding affinities to isogenic cell pairs engineered to overexpress CCR7 as well as cell lines expressing CCR7 paralogs, e.g., CCR9, CCR6, CXCR4 and CCR8.

[4] = tested on: PF382 cells (CCR7−/CCR9+/CCR6+); test: FACS binding, selectivity
Description: as §1, §2, §3

[5] = target: T2, CCR8 (CHO-CCR8) (Homo sapiens, UniProt P51685); test: FACS binding, selectivity (CCR7 paralogs)
T2 construct: expressed in transfected cells; host or cells: CHO
Description: as §1, §2, §3

[6] = target: T3, CXCR4 (HEK293-CXCR4) (Homo sapiens, UniProt P61073); test: FACS binding, selectivity (CCR7 paralogs)
T3 construct: expressed in transfected cells; host or cells: HEK293
Description: as §1, §2, §3

[7] = tested on: KE97; test: ADC cell viability assay (CellTiter-Glo, four days); format: cell-based; details: KE97, CCR7 receptor levels ~100,000
Description: (§4) Cytotoxic effects after binding of directly conjugated antibodies (ADCs) with various payloads and their internalization into CCR7(+) cells were studied by assessing cell viability after four days of treatment. Three fold dilutions of the ADCs were added to 384-well bottom white plates in triplicates ([…]). […] Cells were harvested (adherent cells were detached with Accutase) and resuspended to approximately 2×10^4 cells/ml. Cells were added to 384-well plates on top of the antibody (20 μl/well). The plates were incubated for four days at 37° C. and 5% CO2. Subsequently, 20 µl/well of CellTiter-Glo solution (CellTiter-Glo® Luminescent Cell Viability Assay; Promega, #G7571) was prepared and added to the cells. Cell viability was determined by the luminescence signal, which was measured after 10 min of incubation at 22° C. and 400 rpm with the Envision reader. IC50 values were calculated using the Graphpad Prism software.

[8] = tested on: DEL; test: as above; format: cell-based; details: CCR7 receptor levels ~100,000
Description: as §4

[9] = tested on: DND-41; test: as above; format: cell-based; details: DND-41 (T cell leukemia), CCR7 receptor levels 1,700
Description: as §4
(§5) To assess the ADCs for target-specificity and receptor-level dependency, ADC activity was tested across cell lines with different CCR7 receptor levels. […] Cell lines were chosen based on similar sensitivity to payload.

[10] = tested on: SR786; test: as above; format: cell-based; details: SR786, CCR7 receptor levels ~28,000
Description: as §4, §5

[11] = tested on: CML-T1; test: as above; format: cell-based; details: CML-T1, CCR7 receptor levels ~29,000
Description: as §4, §5

[12] = tested on: NCI-H82; test: as above; format: cell-based; details: NCI-H82 (Small cell lung cancer), CCR7 receptor levels 0
Description: as §4, §5

T3 sequence (P61073 whole entry, species assumed): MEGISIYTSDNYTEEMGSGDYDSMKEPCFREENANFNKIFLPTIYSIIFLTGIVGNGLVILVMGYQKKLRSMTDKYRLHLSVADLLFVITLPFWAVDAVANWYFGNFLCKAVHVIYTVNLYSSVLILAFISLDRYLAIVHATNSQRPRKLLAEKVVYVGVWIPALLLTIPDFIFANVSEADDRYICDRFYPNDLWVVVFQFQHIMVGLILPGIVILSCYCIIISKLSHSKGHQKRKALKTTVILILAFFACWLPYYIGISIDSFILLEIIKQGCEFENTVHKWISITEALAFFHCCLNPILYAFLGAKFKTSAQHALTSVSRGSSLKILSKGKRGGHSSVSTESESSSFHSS
T2 sequence (P51685 whole entry, species assumed): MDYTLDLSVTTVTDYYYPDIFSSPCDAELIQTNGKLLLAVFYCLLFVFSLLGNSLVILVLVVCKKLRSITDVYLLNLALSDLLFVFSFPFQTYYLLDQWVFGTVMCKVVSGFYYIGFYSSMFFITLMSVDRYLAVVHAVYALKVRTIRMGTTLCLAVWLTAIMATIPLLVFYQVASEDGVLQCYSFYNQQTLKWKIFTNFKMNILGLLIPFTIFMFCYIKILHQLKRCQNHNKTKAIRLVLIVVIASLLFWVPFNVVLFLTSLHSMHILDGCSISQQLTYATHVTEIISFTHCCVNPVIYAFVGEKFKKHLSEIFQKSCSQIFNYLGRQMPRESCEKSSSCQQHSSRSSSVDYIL

Row | Molecule | Apparent FACS binding (at 5 ug/ml) [1] | ADCC activity; IC50 (nM) [2] | Apparent FACS binding (at 5 ug/ml) [3] | Apparent FACS binding (at 5 ug/ml) [4] | Apparent FACS binding (at 5 ug/ml) [5] | Apparent FACS binding (at 5 ug/ml) [6] | AMAX, cell viability assay [7] | AMAX, cell viability assay [8] | AMAX, cell viability assay [9] | AMAX, cell viability assay [10] | AMAX, cell viability assay [11] | ADC activity in cell viability assay; IC50 (nM) [12]
1 | B1 | Binding | Yes, but insufficient | No binding | No binding | No binding | No binding |  |  |  |  |  | 
2 | B2 |  |  |  |  |  |  | > 95% | > 95% | <20% AMAX | 90% | 60% | No killing

Source: US20230181756A1, “CCR7 ANTIBODY DRUG CONJUGATES FOR TREATING CANCER” (Novartis AG, priority 2020, published 2023)
